IntAct's records for PubMed 19151722

B1: Protein transport protein TIP20 (Saccharomyces cerevisiae), P33891 (parent)
chain: MNGIDDLLNINDRIKQVQNERNELASKLQNLKQSLASNDTEVALSEVIAQDIIEVGASVEGLEQLRAKYGDLQILNKLEKVAVQQTQMQAGVDKLDSFERQLDELAEQPPDQFTLDDVKALHSKLTSVFATVPQINNIDSQYAAYNKLKSKVTGKYNDVIIQRLATNWSNTFDQKLLEAQWDTQKFASTSVGLVKCLRENSTKLYQLSLLYLPLEEETQNGDSERPLSRSNNNQEPVLWNFKSLANNFNVRFTYHFHATSSSSKIETYFQFLNDYLAENLYKCINIFHDDCNGLTKPVIHEQFINYVLQPIRDKVRSTLFQNDLKTLIVLISQILATDKNLLNSFHYHGLGLVSLISDEVWEKWINYEVEMANRQFINITKNPEDFPKSSQNFVKLINKIYDYLEPFYDLDFDLLVRYKLMTCSLIFMNLTSSYLDYILTVDSLNETRTKEQELYQTMAKLQHVNFVYRKIKSLSSNFIFIQLTDIVNSTESKKYNSLFQNVENDYEKAMSTDMQNSIVHRIQKLLKETLRNYFKISTWSTLEMSVDENIGPSSVPSAELVNSINVLRRLINKLDSMDIPLAISLKVKNELLNVIVNYFTESILKLNKFNQNGLNQFLHDFKSLSSILSLPSHATNYKCMSLHELVKILKLKYDPNNQQFLNPEYIKTGNFTSLKEAYSIKYLKDTKIQDALYRIIYGNIL
partner: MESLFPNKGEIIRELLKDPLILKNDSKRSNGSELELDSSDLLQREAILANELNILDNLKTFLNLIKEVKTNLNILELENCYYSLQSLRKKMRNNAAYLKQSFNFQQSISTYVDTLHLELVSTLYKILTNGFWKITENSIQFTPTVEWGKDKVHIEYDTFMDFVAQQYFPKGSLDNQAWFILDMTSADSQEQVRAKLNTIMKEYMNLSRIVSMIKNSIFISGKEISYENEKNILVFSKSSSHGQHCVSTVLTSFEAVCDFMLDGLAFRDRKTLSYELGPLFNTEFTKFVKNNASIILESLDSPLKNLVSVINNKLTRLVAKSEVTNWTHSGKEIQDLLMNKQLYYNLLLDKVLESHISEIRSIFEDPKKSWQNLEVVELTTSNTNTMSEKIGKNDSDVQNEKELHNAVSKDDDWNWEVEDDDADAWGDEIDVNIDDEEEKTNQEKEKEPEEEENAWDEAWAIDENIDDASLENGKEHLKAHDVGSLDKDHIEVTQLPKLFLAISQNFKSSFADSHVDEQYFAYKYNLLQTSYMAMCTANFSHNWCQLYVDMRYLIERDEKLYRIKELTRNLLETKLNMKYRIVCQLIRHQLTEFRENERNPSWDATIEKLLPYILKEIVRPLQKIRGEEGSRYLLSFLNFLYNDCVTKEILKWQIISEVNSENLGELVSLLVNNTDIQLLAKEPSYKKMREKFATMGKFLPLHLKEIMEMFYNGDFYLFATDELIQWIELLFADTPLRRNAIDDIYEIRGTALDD
B2: Protein transport protein DSL1 (Saccharomyces cerevisiae), P53847 (parent)
chain: B1 partner
partner: B1 chain

Variants of: B1
Settings: with dsl1_yeast DSL1, P53847

| effect of a mutation on the interaction | Variant |
| --- | --- |
| disrupting interaction | I10D;L28E |
| disrupting interaction | V17E |

Variants of: B2
Settings: with tip20_yeast TIP20, P33891

| effect of a mutation on the interaction | Variant |
| --- | --- |
| disrupting interaction | L58D |
| disrupting interaction | L48E |
| disrupting interaction | L55E |
